Assay: yeast display, Sf9 membrane polyspecificity reagent, FACS + sequencing; frameworks hold sequencing errors
Summary of the method: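 A synthetic nanobody library was expressed on Saccharomyces cerevisiae BJ5465 by galactose induction for 36–48 hours. The library was stained for 1 hour at 4 °C with 10% biotinylated, detergent-solubilized Sf9 membrane reagent and enriched with streptavidin microbeads before FACS. Low and high (top ~1%) gates were set on anti-HA fluorescence for expression and streptavidin fluorescence for reagent binding, and each polyreactivity label reflects the gate of origin.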

Row | Sequence | polyreactivity (PSR sort gate)
1 | QVQLVESGGGLVQAGGSLRLSCAASGSTFGYNDMGWYRQAPGKERELVAAISVSDSSTYYADSVKGRFTISRDYAKNTVYLQMNCLKPEDTAVYYCAAEYYVGFTYRYEYWGQGTQVTVSS | low polyreactivity
2 | QVQLVESGGGLVQAGGSLRLSCAASGSTFGYNTMGWYRQAPGNERELVAAITGTGRTNYADSVKGRFTISRDNAKNTVYLQMNRLNPEDTAVYYCNARQAGTRYKYGYYGRYYWGQGTQVTVSS | high polyreactivity
3 | QVQLVESGGGLVQAGGSLRLSCAASGSTFGYYAMGWNRQAPGKERELVATITWSGGSTNYADSVKGRFTISRDNAKNTVYLQMYSLKPEDTAVYYCAADLKYWYFGLAFIEVDYWGQGTQVTVSS | low polyreactivity
4 | QVQLVESGGGLVQAGGSLRLSCAASGSTFGYYAMGWYRQAPGKERELVAAISDGGSTYYADSVKGRFTISRDNAKNTVYLQMNSLKPEDTAVYYCAAEYLAYDWYEYYYWGQGTQVTVSS | high polyreactivity
5 | QVQLVESGGGLVQAGGSLRLSCAASGSTFGYYAMGWYRQAPGKERELVAAITSGGSKKYADSVKGRFTISRDNAKNTVYLQMNSLKPEDTAVYYCATSRYFGYGYWGQGTQVTVSS | low polyreactivity
6 | QVQLVESGGGLVQAGGSLRLSCAASGSTFGYYAMGWYRQAPGKERELVAGITSGGSTYYADSVKGRFTISRDNAKNTVYLQMNSLKPEDTAVYYCAKPVRHYRGRYFKYDYWGQGTQVTVSS | high polyreactivity
7 | QVQLVESGGGLVQAGGSLRLSCAASGSTFGYYAMGWYRQAPGKERELVAVIRRGGSTNYADSVKGRFTISRDNAKNTVYLQMNSLKPEDTAVYYCNKYRYAGITAEFYYWGQGTQVTVSS | high polyreactivity
8 | QVQLVESGGGLVQAGGSLRLSCAASGSTFGYYAMGWYRQAPGQERELVAAITSGGSTKYADSVKGRFTISRDNAKNTVYLQLISLKPEDNAVYYCATSRYFGYGYWGQGTQVTVSS | low polyreactivity
9 | QVQLVESGGGLVQAGGSLRLSCAASGSTFGYYTMGWYRQAPGKERELVAAISWSGGRTYYADSVKGRFTISRDNAKNTVYLQMNSLKPEDTAVYYCAAPRYGGWRSYQKYDYWGQGTQVTVSS | high polyreactivity
10 | QVQLVESGGGLVQAGGSLRLSCAASGSTFGYYTMGWYRQAPGKERELVAAITKSGGGTYYADSVKGRFTISRDNAKNTVYLQMNSLKPEDTAVYYCADYSRFTSDYWGQGTQVTVSS | high polyreactivity
11 | QVQLVESGGGLVQAGGSLRLSCAASGSTFGYYTMGWYRQSPGKERELVAAITWRGGRTYYADSVKGRFTISRDNEKNTVYLQMNSLKPEDTAVYYCAARSTVVMDYWGQGTKVTVSS | high polyreactivity
12 | QVQLVESGGGLVQAGGSLRLSCAASGSTFHDNAMGWYIQAPGKERELVAAISSGGRTNYADSVKGRFTISRDNAKNTVYLQMNSLKPEDTAVYYCAASFRRWYFYDRHEYGYWGQGTQVTVSS | low polyreactivity
13 | QVQLVESGGGLVQAGGSLRLSCAASGSTFHDYAMGWYRQAPGKEREFVAAISVRGGSTYYADSVKGRFTISRDNAKNTVYLQMNSLKPEDTAVYYCNKLSSDSYNYWGQGTQVTVSS | high polyreactivity
14 | QVQLVESGGGLVQAGGSLRLSCAASGSTFHFYAMGWYRQAHGKERELVASITSRGGNTHYADSVKGRFTISRDNAKNTVYFQMNSLKPEDTAVYYCAARKGTSWKAHFRFDYWGQGTQVTVSS | low polyreactivity
15 | QVQLVESGGGLVQAGGSLRLSCAASGSTFHLYAMGWYRQAPGKERELVADIDLSGGSTYYADSVKGRFTISRDNAKNTVYLQMNSLKPEDTAVYYCAADHVSSLGFDYWGQGTQVTVSS | low polyreactivity
16 | QVQLVESGGGLVQAGGSLRLSCAASGSTFHRKAMGWYRQAPGKERELVASISIGGSTNYADSVKGRFTISRDNAKNTVYLQMNSLKPEDTAVYYCATEPNPRRPRVDYDYWGQGTQVTVSS | low polyreactivity
17 | QVQLVESGGGLVQAGGSLRLSCAASGSTFHRNAMGWYRPAQGKERELVASISIGGSTNYADSVKGRVTISRDNAKNTVYLQMNSLKPEDTAVYYCATEPNPRRPRVDYDYWGQGTQVTVSS | low polyreactivity
18 | QVQLVESGGGLVQAGGSLRLSCAASGSTFHRNGMGWYRQAPGKERELVAAISRTGGSTYYADSEKGRFTISRDNAKNTVYLQMNSLKPEDTAVYYCAAQGNNYVRHTYGYWGQGTQVTVSS | low polyreactivity
19 | QVQLVESGGGLVQAGGSLRLSCAASGSTFHRYAMGWYRQAAGKERELVATITSRGGITYYADSVKGRFTISRDNAKNTVYLQMNSLKPEDTAVYYCNTEDGTTPQYGYDQGMYYWGQGTQVTVSS | low polyreactivity
20 | QVQLVESGGGLVQAGGSLRLSCAASGSTFHRYTMGWYRQAPGKERELVAAISSGGRTYYADSVKGRFTISRDNAKNTVYLQKNSLKPEDTAVYYCNSRYPRQYWGGYDYWGQGTQVTVSS | high polyreactivity
21 | QVQLVESGGGLVQAGGSLRLSCAASGSTFHRYVMGWYRQAPGKERELVAVINSTGGSTYYADSVKGRFTISRDNAKNTVYLQMNSLKPEDNAVYYCARVTRRGPGYTTLYSRYDYWGQGTQVTVSS | low polyreactivity
22 | QVQLVESGGGLVQAGGSLRLSCAASGSTFHSYAMGRYRQAPGKEREFVAAITIRGGSTYYADSVKGRFTISRDNAKNTVYLQMNSLKPEDTAVYYCAALVWGSYARWRYYWGQGTQVTVSS | high polyreactivity

Row | Sequence | polyreactivity (PSR sort gate)
23 | QVQLVESGGGLVQAGGSLRLSCAASGSTFHTYTMGWYRPAPGKERELVAGISRSGGSTYYAESVKGRFTISRDNAKNTVYLQMNSLKPEATAVYYCNALSSKTDTYDYWGQGTQVTVSS | high polyreactivity
24 | QVQLVESGGGLVQAGGSLRLSCAASGSTFHWYVMGWYRQAPAKERELVAAITWSGGSTYYADSVKGRFTISRDNAKNTVYLQMNSLKPEDTAVYYCNAVFWIWNAGYDYWGQGTQVTVSS | low polyreactivity
25 | QVQLVESGGGLVQAGGSLRLSCAASGSTFIFNTMGWYRQAPGKERELVASITGDGRTNYADSVKGRFTISRDNAKNTVYLQMNSLKPEDTAVYYCAADGYDQYPLWAPPGDYWGQGTQVTVSS | low polyreactivity
26 | QVQLVESGGGLVQAGGSLRLSCAASGSTFIFYVMGWNRQAPGKERELVASITGNGTSTYYADSVKGRFTISRDNAKNTVYLQMNSLKPEDTAVYYCNAVFSPSRYDYWGQGTQVTVSS | low polyreactivity
27 | QVQLVESGGGLVQAGGSLRLSCAASGSTFIIYAMGWYRQAPGKERELVAAISWSGGSTYYADSVKGRFTISRDNAKNTVYLQMNSLKPEDTAVYYCNAARYYTPWRTWYDYWGQGTQVTVSS | high polyreactivity
28 | QVQLVESGGGLVQAGGSLRLSCAASGSTFINYAMGWYRQAPGKERELVAAISKGGGSTYYADSVKGRFTISRDNAKNTVYLQMTSLKPEDTAVYYCAATGRAGAGKRKYEYWGQGTQVTVSS | high polyreactivity
29 | QVQLVESGGGLVQAGGSLRLSCAASGSTFIQYAMGWYRQAPGKERELVATIRWIGGSTYYADSVKGRFTISRDNAKNTVYLQMNSLKPEDTAVYYCAAGYEYVENGVDWYEYDYWGQGTQVTVSS | low polyreactivity
30 | QVQLVESGGGLVQAGGSLRLSCAASGSTFIWNAMGWYRQAPGKVRELVAAISSGGSTYYADSVKGRFTISRDNAKNTVYLQMNSLKPEDTAVYYCAAEYVYNVSEQRYAVYSTDDYWGQGSQVTVSS | low polyreactivity
31 | QVQLVESGGGLVQAGGSLRLSCAASGSTFIYNAMGWYRQAPGKERELVAAITWNGGSTYYADSVKGRFTISRDNAKNTVYLQMNSLKPEDTAVYYCAVDKGSQPHYDYWGQGTQVTVSS | low polyreactivity
32 | QVQLVESGGGLVQAGGSLRLSCAASGSTFIYYAMGWYRQAPGKERELVASISRSGGSTYYADSVKGRFTISRDNAKNTVYLQMNSLKPEDTAVYYCAAVGWTYEYWEWYDYWGQGTQVTVSS | high polyreactivity
33 | QVQLVESGGGLVQAGGSLRLSCAASGSTFIYYTMGWYRQAPGKERELVAAIPSSGGSTYYADSVKGRFTISRDNAKNTVYLQMNSLKPEDTAVYYCADDGTYIKFAKLYRRYDYWGQGTQVTVSS | low polyreactivity
34 | QVQLVESGGGLVQAGGSLRLSCAASGSTFKAYAMGWYRQAPGKERELVAAITRRGTSTYYADSVKGRFTISRDNAKNTDYFQMNRLKPEDTAVFYCNAKYVSDRSSAVSFDYWVQGTQVTVSS | low polyreactivity
35 | QVQLVESGGGLVQAGGSLRLSCAASGSTFKAYAMGWYRQAPGKERELVAAITRRGTSTYYADSVKGRFTISRDNAKNTVYLQMNSLNPEDTAVYYCNAKYVSDRSSAVSFDYWGQGTQVTVSS | low polyreactivity
36 | QVQLVESGGGLVQAGGSLRLSCAASGSTFKAYAMGWYRQAPGKEWELVAAISASGGTTYYADSVKGRFTISRDNAKNTVYLQLKSLKPEDTAVYYCNARHPYTGGRRYPYTRYGYWGQGTQVTVSS | high polyreactivity
37 | QVQLVESGGGLVQAGGSLRLSCAASGSTFKLYAMGWYRPAPGKERELVAAISYRGGTTYYADSVKGRFTISRDNAKNSVYLQMNSLKPEDTAVYYCAAGWRPRYLRDASKYDYWGQGTQVTVSS | low polyreactivity
38 | QVQLVESGGGLVQAGGSLRLSCAASGSTFKLYAMGWYRPAPGKERELVAAITSNCGRTYYADSVKGRFTISRDIAKNTVYLQMNSLKPEDTAVYYCAARRYAPAGGYDYWGQGTQVTVSS | high polyreactivity
39 | QVQLVESGGGLVQAGGSLRLSCAASGSTFKNNAMGWYRQAPGKEREFVASISKRGGSTYYADSVKGRFTISRDNAKNTVYLQMNSLKPEDTAVYYCGKTYWSYGWSHGDYGEFDYWGQGSQVTVSS | high polyreactivity
40 | QVQLVESGGGLVQAGGSLRLSCAASGSTFKPNVMGWSRLAPGKERELVAAITSTDDPTYYADSVKGRFSISRDNAKNTVYLQMNSLKPEDTAVDYCAVESLRDDFEYDYWGQGTQVTVSS | low polyreactivity
41 | QVQLVESGGGLVQAGGSLRLSCAASGSTFKRYAMAWYREGPGKEMDLVASISRSGCSTYYADSVKGRFTISRDNAKNSVYLQMNSLIPEDTAVYYCASRGFSFSFSYPSYDYWGQGTQVTVSS | high polyreactivity
42 | QVQLVESGGGLVQAGGSLRLSCAASGSTFKRYAMGWYRQAPAKERELVASISSGGSTNYADSVKGRFTISRDNAKNTVYLQMNSLKPEDTAVYYCNAVYYCYKGDYWGQGTQVTVSS | high polyreactivity
43 | QVQLVESGGGLVQAGGSLRLSCAASGSTFKRYAMGWYRQAPGKERELVAAIRRGGITNYADSVKGRFTISRDNAKNTVYLQINSLKPEDTAVYYWAATSIYSNYYREGYWGQGTQVTVSS | low polyreactivity

Source: the nanobody polyreactivity screen of Harvey et al. (2022)
